Experiments:
[1] = molecular target: monoclonal antibody 1129; test: competitive ELISA; soluble 248/404 F inhibits 1129 binding to plate-adsorbed A2 F
[2] = molecular target: monoclonal antibody 1129; test: competitive ELISA; soluble 248/404 F inhibits 1129 binding to plate-adsorbed 248/404 F
[3] = molecular target: monoclonal antibody 1129; test: competitive ELISA; soluble A2 F inhibits 1129 binding to plate-adsorbed 248/404 F
[4] = molecular target: monoclonal antibody 1129; test: competitive ELISA; soluble A2 F inhibits 1129 binding to plate-adsorbed A2 F

| Substance | Percent Inhibition [1] | Percent Inhibition [2] | Percent Inhibition [3] | Percent Inhibition [4] |
| --- | --- | --- | --- | --- |
| purified RSV fusion (F) protein from the cold-passaged, temperature-sensitive mutant A2 strain cpts-248/404 (PFP-3) (from UniProt P03420 26-574) | 94.7% | 95.9% | – | – |
| purified RSV fusion (F) protein from the parent A2 strain (PFP-2) (from UniProt P03420 26-574) | – | – | > 99% | > 99% |

Source: patent US20060171955A1
